Reference: patent US20110294748A1 (Janssen / Centocor, published 2011)
Ends that are not written are not given here.

B1: PG-peptide fusion of clone 5 (protein G IgG domain with peptide SEQ ID NO: 1 at its C-terminus) (other)
chain: YKLILNGKTLKGETTTEAVDAATAEKVFKQYANDNGVDGEWTYDDATKTFTVTETGCDFPELCRGCHP
notes: also called PG-peptide fusion clone 5
B2: PG-peptide fusion of clone 12 (protein G IgG domain with peptide SEQ ID NO: 8 at its C-terminus) (other)
chain: YKLILNGKTLKGETTTEAVDAATAEKVFKQYANDNGVDGEWTYDDATKTFTVTESNCPPLDMRLTELCVM
notes: also called PG-peptide fusion clone 12
B3: PG-peptide fusion of clone 11 (protein G IgG domain with peptide SEQ ID NO: 7 at its C-terminus) (other)
chain: YKLILNGKTLKGETTTEAVDAATAEKVFKQYANDNGVDGEWTYDDATKTFTVTEHTCFYPTLMPPELCFD
notes: also called PG-peptide fusion clone 11
B4: PG-peptide fusion of clone 8 (protein G IgG domain with peptide SEQ ID NO: 4 at its C-terminus) (other)
chain: YKLILNGKTLKGETTTEAVDAATAEKVFKQYANDNGVDGEWTYDDATKTFTVTEPVCPSFCYDQYVCPT
notes: also called PG-peptide fusion clone 8
B5: PG-peptide fusion of clone 9 (protein G IgG domain with peptide SEQ ID NO: 5 at its C-terminus) (other)
chain: YKLILNGKTLKGETTTEAVDAATAEKVFKQYANDNGVDGEWTYDDATKTFTVTEFTCAVYSLSELDCRD
notes: also called PG-peptide fusion clone 9
B6: PG-peptide fusion of clone 10 (protein G IgG domain with peptide SEQ ID NO: 6 at its C-terminus) (other)
chain: YKLILNGKTLKGETTTEAVDAATAEKVFKQYANDNGVDGEWTYDDATKTFTVTELSCYDPTLRTLYCHV
notes: also called PG-peptide fusion clone 10
B7: PG-peptide fusion of clone 7 (protein G IgG domain with peptide SEQ ID NO: 3 at its C-terminus) (other)
chain: YKLILNGKTLKGETTTEAVDAATAEKVFKQYANDNGVDGEWTYDDATKTFTVTEPFCYSGGPLPYPCTY
notes: also called PG-peptide fusion clone 7
B8: PG-peptide fusion of clone 16 (protein G IgG domain with peptide SEQ ID NO: 12 at its C-terminus) (other)
chain: YKLILNGKTLKGETTTEAVDAATAEKVFKQYANDNGVDGEWTYDDATKTFTVTEAGCPSPMPPVDPGFYSAIVQLCRE
notes: also called PG-peptide fusion clone 16
B9: PG-peptide fusion of clone 14 (protein G IgG domain with peptide SEQ ID NO: 10 at its C-terminus) (other)
chain: YKLILNGKTLKGETTTEAVDAATAEKVFKQYANDNGVDGEWTYDDATKTFTVTEVECDTPSITFSPGLEALFWNTCSP
notes: also called PG-peptide fusion clone 14
B10: peptide-Alkaline phosphatase-His6 fusion protein of clone 5 (other)
chain: TGCDFPELCRGCHPTPEMPVLENRAAQGDITTPGGARRLTGDQTAALRDSLSDKPAKNIILLIGDGMGDSEITAARNYAEGAGGFFKGIDALPLTGQYTHYALNKKTGKPDYVTDSAASATAWSTGVKTYNGALGVDIHEKDHPTILEMAKAAGLATGNVSTAELQGATPAALVAHVTSRKCYGPSATSEKCPGNALEKGGKGSITEQLLNARADVTLGGGAKTFAETATAGEWQGKTLREQAQTRGYQLVSDAASLNSVTEANQQKPLLGLFADGNMPVRWLGPKATYHGNIDKPAVTCTPNPQRNDSVPTLAQMTDKAIELLSKNEKGFFLQVEGASIDKQNHAANPCGQIGETVDLDEAVQRALEFAKKEGNTLVIVTADHAHASQIVAPDTKAPGLTQALNTKDGAVMVMSYGNSEEDSQEHTGSQLRIAAYGPHAANVVGLTDQTDLFYTMKAALGLKVPGGSGGGSGGGSGGGSGTPEMPVLENRAAQGDITTPGGARRLTGDQTAALRDSLSDKPAKNIILLIGDGMGDSEITAARNYAEGAGGFFKGIDALPLTGQYTHYALNKKTGKPDYVTDSAASATAWSTGVKTYNGALGVDIHEKDHPTILEMAKAAGLATGNVSTAELQGATPAALVAHVTSRKCYGPSATSEKCPGNALEKGGKGSITEQLLNARADVTLGGGAKTFAETATAGEWQGKTLREQAQTRGYQLVSDAASLNSVTEANQQKPLLGLFADGNMPVRWLGPKATYHGNIDKPAVTCTPNPQRNDSVPTLAQMTDKAIELLSKNEKGFFLQVEGASIDKQNHAANPCGQIGETVDLDEAVQRALEFAKKEGNTLVIVTADHAHASQIVAPDTKAPGLTQALNTKDGAVMVMSYGNSEEDSQEHTGSQLRIAAYGPHAANVVGLTDQTDLFYTMKAALGLKVPGNSHHHHHH
notes: Tested as bacterial culture supernatant; also called peptide-AP fusion clone 5
B11: PG-peptide fusion of clone 6 (protein G IgG domain with peptide SEQ ID NO: 2 at its C-terminus) (other)
chain: YKLILNGKTLKGETTTEAVDAATAEKVFKQYANDNGVDGEWTYDDATKTFTVTEAECEWPWLTLELCQS
notes: also called PG-peptide fusion clone 6

Tests used:
[1] = target: T1, soluble IGF1R (sIGF1R), extracellular domain of human insulin-like growth factor 1 receptor, carboxy-terminal … (human, UniProt P08069 31-932); assay: solid phase phage ELISA, phage lysate on coated sIGF1R
T1 construct: Bought from R&D Systems; GenBank NP-000866 is printed for the whole receptor; also called IFG1R
Method: Total of 384 individual phage lysates from the panning were tested for binding specificity towards sIGF1R in a solid phase phage ELISA. Briefly, 100 μl/well of 5 μg/ml sIGF1R (R&D Systems, Minneapolis, Minn.) was bound to Black Maxisorp Plates (Nunc, Rochester, N.Y.), 25 μl of phage lysate added, and the reaction was detected using anti-M13-HRP antibody (EMD Biosciences, Gibbstown, N.J.) and POD substrate (Roche, Indianapolis, Ind.), and the signal detected using a TEKAN plate reader. […] Positive lysates were defined as clones with a sIGF1R specific signal that was three fold above the background of the negative control. A total of 13 clones with unique peptide sequences were obtained with confirmed binding to the sIGF1R (Table 1). From these 13 clones, 3 (clones 5, 13 and 16) cross-reacted with the insulin receptor.

[2] = target: T1, soluble IGF1R (sIGF1R), extracellular …; assay: ELISA, serially diluted PG-peptide fusion on coated sIGF1R, one site binding fit
Method: Relative binding affinities of the PG-peptide fusions for sIGF1R were measured using ELISA. The Kds were determined using GraphPad Prism 4 software with a one site binding equation. 100 μl of 2 μg/ml sIGF1R(R&D Systems, Minneapolis, Minn.) in Dulbecco's Phosphate Buffer Saline (DPBS (−/−)) was coated onto a 96 well Black Maxisorp plates (Nunc, Rochester, N.Y.) overnight at 4° C. The plates were washed with TBST and the wells blocked with 200 μl/well Starting Block T20 (TBS) (Pierce, Rockford, Ill.) for 1 hr, room temperature with 300 rpm shaking. 75 μl/well of purified, serially diluted PG-peptide fusions, starting concentration 40 μM, was added into the wells and incubated for 1 h, room temperature with 300 rpm mixing; the volume was brought up to 100 μl with Starting Block T20. The plates were washed 3× with TBST and then probed with 100 μl/well Peroxidase labeled-Rabbit antibody (1:5000) (Rockland, Gilbertsville, Pa.), washed, and the signal was detected using 100 μl/well POD substrate (Roche, Indianapolis, Ind.). Chemiluminescence was detected using a Molecular Devices M5 plate reader.

[3] = target: T1, soluble IGF1R (sIGF1R), extracellular …; assay: ELISA, culture supernatant on 2 µg/ml coated sIGF1R, Attophos detection
Method: The binding of purified peptide-AP fusion proteins to sIGF1R was assessed using ELISA against immobilized sIGF1R. Briefly, bacteria transformed with each peptide-AP fusion expression vector were grown overnight and the following day the cultures were clarified by centrifugation at 4,500 rpm, 4° C. The supernatants were collected and 75 μl of each supernatant was assayed for binding to 2 μg/ml sIGF1R immobilized on ELISA plates. The bound peptides were detected using the Attophos Substrate (Roche, Indianapolis, Ind.) following the manufacturer's recommendation and read using a Molecular Devices M5 plate reader.

Binder	binding result [1]	EC50 [2] [nM]	further results
PFCYSGGPLPYPCTY (peptide, not shown: large carriers, cysteine pairing not given here; also: displayed on phage pIX, Tested as phage lysate) [phage clone 7 (peptide SEQ ID NO: 3 displayed on pIX phage)]	binds	–	–
B1	–	750	–
HTCFYPTLMPPELCFD (peptide, not shown: large carriers, cysteine pairing not given here; also: displayed on phage pIX, Tested as phage lysate) [phage clone 11 (peptide SEQ ID NO: 7 displayed on pIX phage)]	binds	–	–
B2	–	1800	–
B3	–	1200	–
B4	–	1600	–
B5	–	3500	–
PVCPSFCYDQYVCPT (peptide, not shown: large carriers, cysteine pairing not given here; also: displayed on phage pIX, Tested as phage lysate) [phage clone 8 (peptide SEQ ID NO: 4 displayed on pIX phage)]	binds	–	–
B6	–	4300	–
AECEWPWLTLELCQS (peptide, not shown: large carriers, cysteine pairing not given here; also: displayed on phage pIX, Tested as phage lysate) [phage clone 6 (peptide SEQ ID NO: 2 displayed on pIX phage)]	binds	–	–
SNCPPLDMRLTELCVM (peptide, not shown: large carriers, cysteine pairing not given here; also: displayed on phage pIX, Tested as phage lysate) [phage clone 12 (peptide SEQ ID NO: 8 displayed on pIX phage)]	binds	–	–
FTCAVYSLSELDCRD (peptide, not shown: large carriers, cysteine pairing not given here; also: displayed on phage pIX, Tested as phage lysate) [phage clone 9 (peptide SEQ ID NO: 5 displayed on pIX phage)]	binds	–	–
B7	–	1800	–
B8	–	8200	–
TGCDFPELCRGCHP (peptide, not shown: large carriers, cysteine pairing not given here; also: displayed on phage pIX, Tested as phage lysate) [phage clone 5 (peptide SEQ ID NO: 1 displayed on pIX phage)]	binds	–	–
B9	–	850	–
B10	–	–	binding result [3]: binds
DDIDEFLHQLHNLVNNVH (peptide, not shown: large carriers, Tested as phage lysate) [phage clone 17 (peptide SEQ ID NO: 13 displayed on pIX phage)]	binds	–	–
AGCPSPMPPVDPGFYSAIVQLCRE (peptide, not shown: large carriers, cysteine pairing not given here; also: displayed on phage pIX, Tested as phage lysate) [phage clone 16 (peptide SEQ ID NO: 12 displayed on pIX phage)]	binds	–	–
VECDTPSITFSPGLEALFWNTCSP (peptide, not shown: large carriers, cysteine pairing not given here; also: displayed on phage pIX, Tested as phage lysate) [phage clone 14 (peptide SEQ ID NO: 10 displayed on pIX phage)]	binds	–	–
B11	–	1000	–
LSCYDPTLRTLYCHV (peptide, not shown: large carriers, cysteine pairing not given here; also: displayed on phage pIX, Tested as phage lysate) [phage clone 10 (peptide SEQ ID NO: 6 displayed on pIX phage)]	binds	–	–
